Laboratory results as given in paper PMC7857395 (Science (New York, N.y.), 2020).

Molecular target: SARS-CoV RBD (SARS-CoV (P59594; strain ), UniProt P59594)
Experiment: ELISA
Settings: both partners purified

| Binder | binding result |
| --- | --- |
| S2E12 human monoclonal antibody (IgG) (antibody, V domains shown, also called S2E12 IgG; S2E12 mAb; copies: 2 + 2) VH: not shown VL: DIVLTQTPGTLSLSPGERATLSCRASQSVSSSYLAWYQQKPGQAPRLLIYGASSRATGIPDRFSGSGSGTDFTLTISRLEPEDFAVYYCQQYVGLTGWTFGQGTKVEIK | no binding |
| S2M11 human monoclonal antibody (IgG) (antibody, V domains shown, also called S2M11 IgG; S2M11 mAb; copies: 2 + 2) VH: EVQLVQSGAEVKKPGASVKVSCKASGYTFTGYYMHWVRQAPGQGLEWMGWINPISSGTSYAQTFQGRVTMTSDTSITTAYMELSRLRSDDTAVYYCARAAPFYDFWSGYSYFDYWGQGTLVTVSS VL: not shown | no binding |
